From PMC2632936 (Journal of molecular biology, 2008)

How the values were obtained:
[1] = target: Vps4_(ΔMIT, E233Q) (solution experiments) (S. cerevisiae) (UniProt P52917); assay: AUC
AUC = target: the molecule itself; assay: AUC

## Vps4_(ΔMIT, E233Q) (solution experiments) (from UniProt P52917 104-437) (domain or fragment)
[1]
  stoichiometry N: 2.19

B1: full length Vps4_(E233Q) (S. cerevisiae) (enzyme, UniProt P52917 1-437, looked up)
chain: MSTGDFLTKGIELVQKAIDLDTATQYEEAYTAYYNGLDYLMLALKYEKNPKSKDLIRAKFTEYLNRAEQLKKHLESEEANAAKKSPSAGSGSNGGNKKISQEEGEDNGGEDNKKLRGALSSAILSEKPNVKWEDVAGLEGAKEALKEAVILPVKFPHLFKGNRKPTSGILLYGPPGTGKSYLAKAVATEANSTFFSVSSSDLVSKWMGESEKLVKQLFAMARENKPSIIFIDQVDALTGTRGEGESEASRRIKTELLVQMNGVGNDSQGVLVLGATNIPWQLDSAIRRRFERRIYIPLPDLAARTTMFEINVGDTPCVLTKEDYRTLGAMTEGYSGSDIAVVVKDALMQPIRKIQSATHFKDVSTEDDETRKLTPCSPGDDGAIEMSWTDIEADELKEPDLTIKDFLKAIKSTRPTVNEDDLLKQEQFTRDFGQEGN
AUC
  Kd: < 5 µM
  stoichiometry N: 1.97
